Source: article PMC10948613 (Frontiers in Plant Science, 2024)

B1: Renilla-tagged TRIPTYCHON (TRY) (natural protein, Arabidopsis thaliana, UniProt Q8GV05 1-106, looked up)
chain: MDNTDRRRRRKQHKIALHDSEEVSSIEWEFINMTEQEEDLIFRMYRLVGDRWDLIAGRVPGRQPEEIERYWIMRNSEGFADKRRQLHSSSHKHTKPHRPRFSIYPS
notes: TRIPTYCHON (TRY), R3MYB, Arabidopsis thaliana; Backbone pTREXdest30; also called TRY-Renilla; source: HEK293TM cells, transiently expressed, in lysate; not shown: Renilla reniformis luciferase (Rluc), N-terminal, kept
B2: Renilla-tagged CAPRICE (CPC) (natural protein, Arabidopsis thaliana, UniProt O22059 1-94, looked up)
chain: MFRSDKAEKMDKRRRRQSKAKASCSEEVSSIEWEAVKMSEEEEDLISRMYKLVGDRWELIAGRIPGRTPEEIERYWLMKHGVVFANRRRDFFRK
notes: CAPRICE (CPC), R3MYB, Arabidopsis thaliana; Backbone pTREXdest30; also called CPC-Renilla; source: HEK293TM cells, transiently expressed, in lysate; not shown: Renilla reniformis luciferase (Rluc), N-terminal, kept
B3: Renilla-tagged GLABRA1 (GL1) (natural protein, Arabidopsis thaliana, UniProt P27900 1-228, looked up)
chain: MRIRRRDEKENQEYKKGLWTVEEDNILMDYVLNHGTGQWNRIVRKTGLKRCGKSCRLRWMNYLSPNVNKGNFTEQEEDLIIRLHKLLGNRWSLIAKRVPGRTDNQVKNYWNTHLSKKLVGDYSSAVKTTGEDDDSPPSLFITAATPSSCHHQQENIYENIAKSFNGVVSASYEDKPKQELAQKDVLMATTNDPSHYYGNNALWVHDDDFELSSLVMMNFASGDVEYCL
notes: GLABRA1 (GL1), R2R3MYB, Arabidopsis thaliana; Backbone pTREXdest30; also called GL1-Renilla; GL1Renilla; source: HEK293TM cells, transiently expressed, in lysate; not shown: Renilla reniformis luciferase (Rluc), N-terminal, kept
B4: Renilla-tagged TRANSPARENT TESTA GLABRA1 (TTG1) (natural protein, Arabidopsis thaliana, UniProt Q9XGN1 1-341, looked up)
chain: MDNSAPDSLSRSETAVTYDSPYPLYAMAFSSLRSSSGHRIAVGSFLEDYNNRIDILSFDSDSMTVKPLPNLSFEHPYPPTKLMFSPPSLRRPSSGDLLASSGDFLRLWEINEDSSTVEPISVLNNSKTSEFCAPLTSFDWNDVEPKRLGTCSIDTTCTIWDIEKSVVETQLIAHDKEVHDIAWGEARVFASVSADGSVRIFDLRDKEHSTIIYESPQPDTPLLRLAWNKQDLRYMATILMDSNKVVILDIRSPTMPVAELERHQASVNAIAWAPQSCKHICSGGDDTQALIWELPTVAGPNGIDPMSVYSAGSEINQLQWSSSQPDWIGIAFANKMQLLRV
notes: TRANSPARENT TESTA GLABRA1 (TTG1), WD40 protein, Arabidopsis thaliana; Backbone pTREXdest30; also called TTG1-Renilla; Renilla-tagged TTG1; source: HEK293TM cells, transiently expressed, in lysate; not shown: Renilla reniformis luciferase (Rluc), N-terminal, kept

biological target: T1, ProtA-tagged GLABRA3 (GL3) (Arabidopsis thaliana, UniProt Q9FN69 1-637); experiment: pull-down; LUMIER pull-down: raw HEK293TM extracts of ProtA-tagged GL3 and a Renilla-tagged protein mixed, dilution series of the ratio, Renilla luminescence on the beads; ratios from HA Western blots; single-site reversible binding model; KD dimensionless and relative to the total GL3 concentration; settings: partners not purified
T1 construct: GLABRA3 (GL3), basic helix-loop-helix (bHLH)-like transcription factor, Arabidopsis thaliana; Backbone pTREXdest30; The results write 'GL3-ProtA', but the methods say that the tag is fused to the N-terminus; also called GL3-ProtA; ProtA-tagged GL3; source: HEK293TM cells, transiently expressed, in lysate; not shown: Staphylococcus aureus protein A, N-terminal, kept
T1 sequence (looked up): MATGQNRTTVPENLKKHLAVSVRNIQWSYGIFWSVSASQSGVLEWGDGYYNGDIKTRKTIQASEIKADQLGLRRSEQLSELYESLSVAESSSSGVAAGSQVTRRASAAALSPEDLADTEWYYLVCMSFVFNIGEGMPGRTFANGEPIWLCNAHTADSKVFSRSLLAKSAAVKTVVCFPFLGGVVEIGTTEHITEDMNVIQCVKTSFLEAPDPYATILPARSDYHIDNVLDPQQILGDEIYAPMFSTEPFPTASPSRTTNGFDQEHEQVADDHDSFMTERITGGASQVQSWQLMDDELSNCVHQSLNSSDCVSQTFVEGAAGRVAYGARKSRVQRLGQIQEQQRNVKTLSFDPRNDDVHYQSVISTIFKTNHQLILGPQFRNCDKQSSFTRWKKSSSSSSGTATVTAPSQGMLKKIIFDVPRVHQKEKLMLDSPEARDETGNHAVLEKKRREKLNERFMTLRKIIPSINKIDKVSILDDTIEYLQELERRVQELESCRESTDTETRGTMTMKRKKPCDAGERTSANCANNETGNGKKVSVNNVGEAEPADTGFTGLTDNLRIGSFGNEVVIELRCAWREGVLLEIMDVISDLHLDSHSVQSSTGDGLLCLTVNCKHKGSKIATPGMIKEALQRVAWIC

In order of rising “relative KD (KD divided by total GL3)” value:
1. B3  0.5 dimensionless, relative to the total GL3 concentration
2. B4  1 dimensionless, relative to the total GL3 concentration
3. B2  2.3 dimensionless, relative to the total GL3 concentration
4. B1  2.7 dimensionless, relative to the total GL3 concentration
